{"source": "patent US6177557", "about": "“High affinity ligands of basic fibroblast growth factor and thrombin” (NeXstar Pharmaceuticals, Inc.)", "key": {"thrombin (alpha) [1]": {"target": "T1, thrombin (alpha) (human, UniProt P00734;P00734 P00734:328-363,P00734:364-622)", "experiment": "filter; curve only in figure"}, "[2]": {"target": "T2, basic fibroblast growth factor (bFGF) (UniProt P09038 P09038:135-288)", "T2 sequence (P09038 135-288, one chain of several)": "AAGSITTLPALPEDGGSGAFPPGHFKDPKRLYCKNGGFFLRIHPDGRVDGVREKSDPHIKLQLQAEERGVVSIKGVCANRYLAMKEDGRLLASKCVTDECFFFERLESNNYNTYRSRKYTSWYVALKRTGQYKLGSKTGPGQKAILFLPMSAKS", "experiment": "filter", "details": "tags: Bachem California, 18 kDa, 154 aa; 125I-labeled for receptor assays; 6-base G-C stem with blunt end", "protocol": "In order to eliminate higher order structures, all DNA solutions were heated to 90° C. in PBS for 2–3 minutes and cooled on ice prior to incubation with protein. Relative binding affinity of individual ligands to bFGF cannot be predicted from sequence information. The majority of sequence isolates were therefore screened for their ability to bind to bFGF by measuring the fraction of radiolabeled DNA bound to nitrocellulose filters following incubation with 1 nM protein. […] Binding of these select isolates was then analyzed in more detail.\nThose ligands are M225, M19, m234, M235, and D12 (SEQ ID NOS:359, 353, 387, 360, 332). The minimum size of the region necessary for binding was determined to be 35 bases for M225, M19 and D12 (See Truncations, Table XXI M225t3 (SEQ ID NO:364), M19t2 (SEQ ID NO:365), D12t2 (SEQ ID NO:341)). The ligand with the smallest essential sequence, m234, was isolated from Family 2, Experiment 3 and contains 24 nucleotides (m234t2 (SEQ ID NO:391)). The truncated ligands were tested for binding to bFGF. After truncation, ligands M225t3, M19t2, D12t2, M235t2, and m234t2 have kd values of 0.7 nM, 1 nM, 1 nM, 1 nM, and 6 nM respectively (Table XXII). All five of the truncated molecules lost some of their affinity for bFGF in comparison to the full length ligands. The binding affinity is regained when an additional G-C base pair is added to the blunt end stem of M225t3. This molecule is termed M225t3GC (SEQ ID NO:443). The binding of M225t3GC is 0.2 nM compared to 0.7 nM for M225t3 without the additional base pair (Table XXII)."}, "[3]": {"target": "T3, vascular endothelial growth factor (VEGF) (UniProt P15692-4 P15692-4:27-191)", "T3 sequence (P15692 other isoform, or with tags, fused parts or gaps)": "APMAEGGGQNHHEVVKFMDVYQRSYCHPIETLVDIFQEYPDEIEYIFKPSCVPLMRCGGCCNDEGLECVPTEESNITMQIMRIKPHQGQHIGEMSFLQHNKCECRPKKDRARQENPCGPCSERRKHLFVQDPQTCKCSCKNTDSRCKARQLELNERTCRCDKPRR", "experiment": "filter", "details": "chain copies: 2; 6-base G-C stem with blunt end"}, "[4]": {"target": "human chorionic gonadotropin (human, UniProt P01215;P0DN86 P01215:25-116,P0DN86:21-165)", "sequence (P01215 25-116, chain 1 of 2, other chains not shown)": "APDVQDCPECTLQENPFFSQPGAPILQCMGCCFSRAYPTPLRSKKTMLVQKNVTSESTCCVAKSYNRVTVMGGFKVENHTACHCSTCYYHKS", "experiment": "filter", "details": "6-base G-C stem with blunt end"}, "[5]": {"target": "T2, basic fibroblast growth factor (bFGF)", "experiment": "filter; PEG 3400 conjugate", "details": "tags: Bachem California, 18 kDa, 154 aa; 125I-labeled for receptor assays"}, "[6]": {"target": "T2, basic fibroblast growth factor (bFGF)", "experiment": "filter; tested for affinity (*), Family 3; no value given", "details": "tags: Bachem California, 154 aa, 18 kDa"}, "[7]": {"target": "T2, basic fibroblast growth factor (bFGF)", "experiment": "filter; PBS, 0.01% HSA, 1 mM DTT, 37 C; +/-0.1", "details": "tags: Bachem California, 18 kDa, 154 aa; 125I-labeled for receptor assays", "protocol": "(§1) This affinity screening allowed identification of those ligands with highest affinity for bFGF. Binding of a group of these ligands was analyzed over a range of bFGF concentrations (FIG. 5) and their dissociation constants.(Kd's) were determined as described (Jellinek et al. (1993) Proc. Natl. Acad. Sci. USA 90:11227–11231) (Table IX). RNA concentrations were determined from their absorbance reading at […] (and were typically <100 pM). Binding reactions were done at 37° C. in phosphate buffered saline containing 0.01% human serum albumin and 1 mM DTT."}, "[8]": {"target": "T2, basic fibroblast growth factor (bFGF)", "experiment": "filter; tested for affinity (*), Family 5; no value given", "details": "tags: Bachem California, 154 aa, 18 kDa"}, "[9]": {"target": "T2, basic fibroblast growth factor (bFGF)", "experiment": "filter; tested for affinity (*), Family 2; no value given", "details": "tags: Bachem California, 154 aa, 18 kDa"}, "[10]": {"target": "T2, basic fibroblast growth factor (bFGF)", "experiment": "filter; PBS, 0.01% HSA, 1 mM DTT, 37 C; +/-0.2", "details": "tags: Bachem California, 18 kDa, 154 aa; 125I-labeled for receptor assays", "protocol": "as §1"}, "thrombin (alpha) [11]": {"target": "T1, thrombin (alpha)", "experiment": "filter; 30% binding at 300 nM tracer is not separately tabulated; curve in figure"}, "[12]": {"target": "T2, basic fibroblast growth factor (bFGF)", "experiment": "filter; PBS, 0.01% HSA, 1 mM DTT, 37 C; +/-0.4", "details": "tags: Bachem California, 18 kDa, 154 aa; 125I-labeled for receptor assays", "protocol": "as §1"}, "thrombin (alpha) [13]": {"target": "T1, thrombin (alpha)", "experiment": "filter; ERL thrombin, 1 mM MgCl2, 37 C"}, "[14]": {"target": "T3, vascular endothelial growth factor …", "experiment": "filter; specificity, data not shown", "details": "chain copies: 2; label: 32P"}, "acidic FGF": {"target": "acidic FGF (UniProt P05230 P05230:16-155)", "sequence (P05230 16-155, one chain of several)": "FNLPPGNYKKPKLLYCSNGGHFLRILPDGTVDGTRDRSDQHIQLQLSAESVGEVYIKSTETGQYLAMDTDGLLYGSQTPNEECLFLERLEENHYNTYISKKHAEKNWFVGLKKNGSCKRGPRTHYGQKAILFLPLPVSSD", "experiment": "filter; specificity, data not shown", "details": "label: 32P"}, "antithrombin III": {"target": "antithrombin III (UniProt P01008 P01008:33-464)", "sequence (P01008 33-464, one chain of several)": "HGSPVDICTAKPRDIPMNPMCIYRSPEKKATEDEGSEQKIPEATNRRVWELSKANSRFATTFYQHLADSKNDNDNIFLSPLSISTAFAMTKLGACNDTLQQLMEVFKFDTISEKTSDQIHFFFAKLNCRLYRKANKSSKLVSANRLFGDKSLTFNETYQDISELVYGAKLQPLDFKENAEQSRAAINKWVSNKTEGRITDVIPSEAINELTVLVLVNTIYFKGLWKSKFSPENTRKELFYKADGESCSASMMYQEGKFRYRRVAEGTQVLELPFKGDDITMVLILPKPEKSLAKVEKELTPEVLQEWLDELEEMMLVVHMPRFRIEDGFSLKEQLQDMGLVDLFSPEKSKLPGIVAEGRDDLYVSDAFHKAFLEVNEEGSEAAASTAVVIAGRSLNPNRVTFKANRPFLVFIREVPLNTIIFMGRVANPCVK", "experiment": "filter; specificity, data not shown", "details": "label: 32P"}, "thrombin (alpha) [15]": {"target": "T1, thrombin (alpha)", "experiment": "filter; specificity, data not shown"}, "[16]": {"target": "T2, basic fibroblast growth factor (bFGF)", "experiment": "competition; displacement from low-affinity receptor on BHK cells; high-affinity receptor >1 uM", "details": "tags: Bachem California, 18 kDa, 154 aa; 125I-labeled for receptor assays; label: 32P", "protocol": "Additionally, modified RNA ligands 21A (SEQ ID NO:104), 38B (SEQ ID NO:114) and Random RNAs were tested.\nReceptor Binding Studies. bFGF was labeled with ^125I by the Iodo-Gen (Pierce) procedure as described by Moscatelli (1987) J. Cell. Physiol. 131:123. […] The amount of ^125I-bFGF bound to the low- and the high-affinity receptor sites was determined as described by Moscatelli (1987) supra."}, "[17]": {"target": "T2, basic fibroblast growth factor (bFGF)", "experiment": "filter; PBS, 0.01% HSA, 1 mM DTT, 37 C; +/-1.1", "details": "tags: Bachem California, 18 kDa, 154 aa; 125I-labeled for receptor assays", "protocol": "as §1"}, "thrombin (alpha) [18]": {"target": "T1, thrombin (alpha)", "experiment": "filter; curve only in figure; ERL thrombin"}, "thrombin (alpha) [19]": {"target": "T1, thrombin (alpha)", "experiment": "filter; 100 mM NaCl, 50 mM Tris pH 7.7, 1 mM DTT, 1 mM MgCl2, 37 C"}}}
{"binder": "thrombin Class I RNA 18 (ssRNA) RNA: AGAUGCCUGUCGAGCAUGCUGAUUGUUGCGGAUCGAAGUGAGUAGGCGCUAGUAGCUAAACAGCUUUGUCGACGGG", "values": [{"measurement": "binding result", "setting": "thrombin (alpha) [1]", "value": "binds"}]}
{"binder": "thrombin Class I RNA 6 (ssRNA) RNA: AGAUGCCUGUCGAGCAUGCUGAGGAUCGAAGUUAGUAGGCUUUGUGUGCUCGUAGCUAAACAGCUUUGUCGACGGG", "values": [{"measurement": "binding result", "setting": "thrombin (alpha) [1]", "value": "binds"}]}
{"binder": "GCGGGGCTACGTACCGGGGCTTTGTAAAACCCCGC (ssDNA)", "note": "[M225t3]", "values": [{"measurement": "Kd", "setting": "[2]", "value": 0.7, "unit": "nM"}, {"measurement": "Kd", "setting": "[3]", "value": "> 200", "unit": "nM"}, {"measurement": "Kd", "setting": "[4]", "value": "> 200", "unit": "nM"}]}
{"binder": "GCGGGGCTACGTACCGGGGCTTTGTAAAACCCCGC (ssDNA, PEG 3400 on 3' amino linker)", "note": "[PEG-M225t3]", "values": [{"measurement": "Kd", "setting": "[5]", "value": 1, "unit": "nM"}]}
{"binder": "m219 (ssDNA) DNA: GGGAGGACGATGCGGGCAGCGACCGCGGTACAAGGCATAGGGTACAGACGACGACGGGGA", "values": [{"measurement": "binding result", "setting": "[6]", "value": "binds"}]}
{"binder": "2'-NH2 21A (ssRNA, 2'-NH2 pyrimidines) RNA: GGGAGACAAGAAUAACGCUCAAGUAGACUAAUGUGUGGAAGACAGCGGGUGGUUCGACAGGAGGCUCACAACAGGC", "values": [{"measurement": "Kd", "setting": "[7]", "value": 1.3, "unit": "nM"}]}
{"binder": "d1 (ssDNA) DNA: ATCCGCCTGATTAGCGATACTACACCCAACCCCCTAAGATTTTAGAGCAACTCGGCGCAACACTTGAGCAAAATCACCTGCAGGGG", "values": [{"measurement": "binding result", "setting": "[8]", "value": "binds"}]}
{"binder": "d46 (ssDNA) DNA: ATCCGCCTGATTAGCGATACTAACACGGTCTGCTGCGACCCCTCGTACTAACGGTACCAGTACTTGAGCAAAATCACCTGCAGGGG", "values": [{"measurement": "binding result", "setting": "[9]", "value": "binds"}]}
{"binder": "d9 (ssDNA) DNA: ATCCGCCTGATTAGCGATACTCGAAGAGTAGGAGGCGATCCGCTCCGTATCAGGTCACATAGGACTTGAGCAAAATCACCTGCAGGGG", "values": [{"measurement": "binding result", "setting": "[8]", "value": "binds"}]}
{"binder": "2'-NH2 59A (ssRNA, 2'-NH2 pyrimidines) RNA: GGGAGACAAGAAUAACGCUCAAUGUGUGGAAGGGUACCUGAGUGGGGAUGGGUUCGACAGGAGGCUCACAACAGGC", "values": [{"measurement": "Kd", "setting": "[10]", "value": 1.2, "unit": "nM"}]}
{"binder": "GAGCAUGCUGGUGCGGCUUUGGGCGCCGUGCUU (ssRNA)", "note": "[33R (Class II clone 27 hairpin)]", "values": [{"measurement": "binding result", "setting": "thrombin (alpha) [11]", "value": "binds"}]}
{"binder": "2'-NH2 34B (ssRNA, 2'-NH2 pyrimidines) RNA: GGGAGGACGAUGCGGAACGGGAGGUACGAGAGCGGGAGCGCAUAAAUAGGAAACUCCUUGCACGUCAGACGACUCGCCCGA", "values": [{"measurement": "Kd", "setting": "[12]", "value": 2, "unit": "nM"}]}
{"binder": "GGTTGGTGTGGTTGG (ssDNA)", "note": "[G15D]", "values": [{"measurement": "Kd", "setting": "thrombin (alpha) [13]", "value": "~200", "unit": "nM"}]}
{"binder": "12A (ssRNA) RNA: GGGAGCUCAGAAUAAACGCUCAAGGGGCAACGCUACAGACAAGUGCACCCAACUUCGACAUGAGGCCCGGAUCCGGC", "values": [{"measurement": "Kd", "setting": "[14]", "value": "> 300", "unit": "nM"}, {"measurement": "Kd", "setting": "acidic FGF", "value": "> 300", "unit": "nM"}, {"measurement": "Kd", "setting": "antithrombin III", "value": "> 300", "unit": "nM"}, {"measurement": "Kd", "setting": "thrombin (alpha) [15]", "value": "> 300", "unit": "nM"}, {"measurement": "IC50", "setting": "[16]", "value": "> 100", "unit": "nM"}]}
{"binder": "2'-NH2 48B (ssRNA, 2'-NH2 pyrimidines) RNA: GGGAGGACGAUGCGGCAGGAUAGGAUGGGGUCGGAACCGUGUAUCAUAACGAGUCAUCUCCUGGUCAGACGACUCGCCCGA", "values": [{"measurement": "Kd", "setting": "[17]", "value": 6.7, "unit": "nM"}]}
{"binder": "CCGGAUCGAAGUUAGUAGGCCGAG (ssRNA)", "note": "[24R (Class I clone 16 hairpin)]", "values": [{"measurement": "binding result", "setting": "thrombin (alpha) [18]", "value": "binds"}]}
{"binder": "d44 (ssDNA) DNA: ATCCGCCTGATTAGCGATACTGACCACGACTGATGCGTCGCCTCCCGATAGGCAGTTACCCACTTGAGCAAAATCACCTGCAGGGG", "values": [{"measurement": "binding result", "setting": "[9]", "value": "binds"}]}
{"binder": "thrombin Class II RNA 27 (ssRNA) RNA: AGAUGCCUGUCGAGCAUGCUGGUGCGGCUUUGGGCGCCGUGCUUGACGUAGCUAAACAGCUUUGUCGACGGG", "values": [{"measurement": "Kd", "setting": "thrombin (alpha) [19]", "value": "~60", "unit": "nM"}]}
{"binder": "thrombin Class I RNA 16 (ssRNA) RNA: AGAUGCCUGUCGAGCAUGCUGCAUCCGGAUCGAAGUUAGUAGGCCGAGGUGGUAGCUAAACAGCUUUGUCGACGGG", "values": [{"measurement": "Kd", "setting": "thrombin (alpha) [19]", "value": "~30", "unit": "nM"}]}
